Measurements published in patent US11274129B2, “Methods for protein tyrosine phosphorylation profiling with variant SH2 domains” (priority 2016, dated 2022).

What was measured:
[1] = target: RSKL-pTyr^423 peptide YQHpYDLDLKD; conditions: peptide RSKL-pTyr^423 YQHpYDLDLKD; read-out: equilibrium dissociation constant (Kd); cited from earlier work
[2] = target: MidT-pTyr^324 peptide EPQpYEEIPIYL; conditions: peptide MidT-pTyr^324 EPQpYEEIPIYL; read-out: equilibrium dissociation constant (Kd); cited from earlier work
[3] = test system: mixture of 54 different pTyr-including peptides derived from 54 TK activation loops; assay: Capture of pTyr-including peptides from a mixture of TK activation loop peptides, scheduled PRM; type: binding
Procedure: Equal molar amounts (10 nmole) of the wild-type (wt) human Src SH2 domain and the DM and TrM human Src SH2 Superbinders (SEQ ID NO: 14 and 5, respectively) expressed with His6 and GST tags were used to capture pTyr-including peptides from a mixture of 54 different pTyr-including peptides (10 pmole each) derived from 54 TK activation loops. The isolated peptides were identified by PRM and quantified based on the corresponding MS peak area. 1.8% of the eluted peptides were injected into a Q-Exactive (Thermo Fisher) preceded with a nano-LC system.
Shown are the amounts of pTyr-including peptides captured, based on the corresponding peak area of PRM signal, by each of the parent human Src SH2 domain and the DM and TrM human Src SH2 Superbinders.

[4] = target: ShcA-pTyr^239 peptide DHQpYYNDFPG; conditions: peptide ShcA-pTyr^239 DHQpYYNDFPG; read-out: equilibrium dissociation constant (Kd); cited from earlier work
[5] = target: EGFR-pTyr^978 peptide PQRpYLVIQGD; conditions: peptide EGFR-pTyr^978 PQRpYLVIQGD; read-out: equilibrium dissociation constant (Kd); cited from earlier work
[6] = target: ShcA-pTyr^317 peptide DPSpYVNVQNL; conditions: peptide ShcA-pTyr^317 DPSpYVNVQNL; read-out: equilibrium dissociation constant (Kd); cited from earlier work
[7] = target: Designed peptide GGpYGG; conditions: read-out: equilibrium dissociation constant (Kd); cited from earlier work
[8] = target: VEGFR1-pTyr^1213 peptide DVRpYVNAAKF; conditions: peptide VEGFR1-pTyr^1213 DVRpYVNAAKF; read-out: equilibrium dissociation constant (Kd); cited from earlier work
[9] = target: EGFR-pTyr^1110 peptide NPVpYHNQPLN; conditions: peptide EGFR-pTyr^1110 NPVpYHNQPLN; read-out: equilibrium dissociation constant (Kd); cited from earlier work

B1: Triple mutant: TrM human Src SH2 domain variant with Thr183Val, Cys188Ala and Lys206Leu; His6/GST-tagged form SEQ ID NO: 11 (protein)
chain: DSIQAEEWYFGKITRRESERLLLNAENPRGTFLVRESETVKGAYALSVSDFDNAKGLNVKHYLIRKLDSGGFYITSRTQFNSLQQLVAYYSKHADGLCHRLTTVCPTSK
modifications: SH2 protein domain; TrM human Src SH2 domain
Kd [1]: 13 nM
Kd [2]: 3.8 nM
number of the 54 pTyr-including peptides captured / detected by PRM ([3]; 10 nmole SH2 domain, 10 pmole each peptide): 54
PRM signal peak area ([3]; BLK (pTyr389) IIDSEpYTAQEGAK, fragment ion b2): 156,244
PRM signal peak area ([3]; BMX (pTyr566) YVLDDQpYVSSVGTK, fragment ion b2): 151,470
PRM signal peak area ([3]; BTK (pTyr551) YVLDDEpYTSSVGSK, fragment ion b2): 1,311,693
PRM signal peak area ([3]; DDR1 (pTyr796/797) NLYAGDpYpYR, fragment ion b2): 337,871
PRM signal peak area ([3]; DDR2 (pTyr740/741) NLYSGDpYpYR, fragment ion y6): 184,684
PRM signal peak area ([3]; EPHA1 (pTyr781) LLDDFDGTpYETQGGK, fragment ion y9): 188,365
PRM signal peak area ([3]; EPHA2 (pTyr772) VLEDDPEATpYTTSGGK, fragment ion y11): 347,030
PRM signal peak area ([3]; EPHA3 (pTyr779) VLEDDPEAApYTTR, fragment ion y8): 394,218
PRM signal peak area ([3]; EPHA6 (pTyr830) VLEDDPEAApYTTTGGK, fragment ion b2): 287,653
PRM signal peak area ([3]; EPHA8 (pTyr793) VLEDDPDAApYTTTGGK, fragment ion y11): 585,234
PRM signal peak area ([3]; EPHB1 (pTyr778) YLQDDTSDPTpYTSSLGGK, fragment ion y10): 205,974
PRM signal peak area ([3]; EPHB2 (pTyr780) FLEDDTSDPTpYTSALGGK, fragment ion Y3): 215,302
PRM signal peak area ([3]; EPHB3 (pTyr792) FLEDDPSDPTpYTSSLGGK, fragment ion y10): 260,454
PRM signal peak area ([3]; EPHB4 (pTyr774) FLEENSSDPTpYTSSLGGK, fragment ion y10): 134,156
PRM signal peak area ([3]; ERBB2 (pTyr877) LLDIDETEpYHADGGK, fragment ion b3): 42,655
PRM signal peak area ([3]; ERBB3 (pTyr866) QLLpYSEAK, fragment ion y2): 164,128
PRM signal peak area ([3]; FER (pTyr714) QEDGGVpYSSSGLK, fragment ion y7): 27,417
PRM signal peak area ([3]; FES (pTyr713) EEADGVpYAASGGLR, fragment ion y8): 25,101
PRM signal peak area ([3]; FGFR1 (pTyr653/654) DIHHIDpYpYK, fragment ion b6): 51,243
PRM signal peak area ([3]; FGFR2 (pTyr656/657) DINNIDpYpYK, fragment ion y4): 87,143
PRM signal peak area ([3]; FGFR3 (pTyr647/648) DVHNLDpYpYK, fragment ion b3): 258,435
PRM signal peak area ([3]; FGFR4 (pTyr642/643) GVHHIDpYpYK, fragment ion b3): 36,105
PRM signal peak area ([3]; FRK (pTyr387) VDNEDIpYESR, fragment ion y6): 290,546
PRM signal peak area ([3]; GSK3 (pTyr279/216) GEPNVSpYICSR, fragment ion y6): 48,337
PRM signal peak area ([3]; HCK (pTyr411) VIEDNEpYTAR, fragment ion b2): 383,521
PRM signal peak area ([3]; INSRR (pTyr1145/1146) DVYETDpYpYR, fragment ion y5): 20,796
PRM signal peak area ([3]; ITK (pTyr512) FVLDDQpYTSSTGTK, fragment ion y11): 403,125
PRM signal peak area ([3]; JAK1 (pTyr1034/1035) EpYpYTVK, fragment ion y2): 109,611
PRM signal peak area ([3]; JAK2 (pTyr221) IQDpYHILTR, fragment ion Y3): 85,513
PRM signal peak area ([3]; JAK3 (pTyr980/981) DpYpYVVR, fragment ion y2): 19,712
PRM signal peak area ([3]; KIT (pTyr823) NDSNpYVVK, fragment ion b2): 234,665
PRM signal peak area ([3]; LMTK2 (pTyr295) EDpYIETDDK, fragment ion b2): 20,896
PRM signal peak area ([3]; LMTK3 (pTyr296/297) EDpYpYLTPER, fragment ion y3): 375,974
PRM signal peak area ([3]; MERTK (pTyr753/754) IYSGDpYpYR, fragment ion b2): 26,483
PRM signal peak area ([3]; MET (pTyr1234/1235) EpYpYSVHNK, fragment ion y2): 111,218
PRM signal peak area ([3]; MUSK (pTyr755/756) NIYSADpYpYK, fragment ion y2): 178,086
PRM signal peak area ([3]; NTRK1 (pTyr680/681) DIYSTDpYpYR, fragment ion b2): 103,368
PRM signal peak area ([3]; NTRK2 (pTyr706/707) DVYSTDpYpYR, fragment ion y4): 114,762
PRM signal peak area ([3]; PGFRB (pTyr857) DSNpYISK, fragment ion y2): 398,271
PRM signal peak area ([3]; PTK7 (pTyr960/961) DVYNSEpYpYHFR, fragment ion b2): 8,863
PRM signal peak area ([3]; RET (pTyr905) DVYEEDSpYVK, fragment ion b2): 882,529
PRM signal peak area ([3]; RON (pTyr1238/1239) EpYpYSVQQHR, fragment ion y4): 44,290
PRM signal peak area ([3]; ROR1 (pTyr645/646) EIYSADpYpYR, fragment ion y6): 177,244
PRM signal peak area ([3]; ROR2 (pTyr645/646) EVYAADpYpYK, fragment ion y5): 334,295
PRM signal peak area ([3]; SRC (pTyr419) LIEDNEpYTAR, fragment ion b2): 99,515
PRM signal peak area ([3]; SRMS (pTyr380) DDIpYSPSSSSK, fragment ion y8): 478,598
PRM signal peak area ([3]; TEC (pTyr519) YVLDDQpYTSSSGAK, fragment ion b2): 781,110
PRM signal peak area ([3]; TIE1 (pTyr1007) GEEVpYVK, fragment ion b2): 409,242
PRM signal peak area ([3]; TIE2 (pTyr992) GQEVpYVK, fragment ion b2): 209,701
PRM signal peak area ([3]; TXK (pTyr420) YVLDDEpYVSSFGAK, fragment ion b2): 271,650
PRM signal peak area ([3]; TYK2 (pTyr1054/1055) AVPEGHEpYpYR, fragment ion y6): 53,473
PRM signal peak area ([3]; VGFR1 (pTyr1053) NPDpYVR, fragment ion y3): 158,244
PRM signal peak area ([3]; VGFR2 (pTyr1059) DPDpYVR, fragment ion Y3): 196,659
Kd [4]: 3.8 nM
Kd [5]: 7.7 nM
Kd [6]: 7.5 nM
Kd [7]: 510 nM
Kd [8]: 23 nM
Kd [9]: 76 nM
